Data on 1 molecule can be found in patent publication US20090149389A1 (PURDUE RESEARCH FOUNDATION, published 2009).

Experiment in all cases: cell-based or functional assay
Experiment [1] addresses JAK3 (h) (human (h), UniProt P52333 781-1124, limits assumed).
The target in experiment [2] is T1, PhKγ2 (h) (human (h), UniProt P15735 1-406).
T1 sequence (looked up): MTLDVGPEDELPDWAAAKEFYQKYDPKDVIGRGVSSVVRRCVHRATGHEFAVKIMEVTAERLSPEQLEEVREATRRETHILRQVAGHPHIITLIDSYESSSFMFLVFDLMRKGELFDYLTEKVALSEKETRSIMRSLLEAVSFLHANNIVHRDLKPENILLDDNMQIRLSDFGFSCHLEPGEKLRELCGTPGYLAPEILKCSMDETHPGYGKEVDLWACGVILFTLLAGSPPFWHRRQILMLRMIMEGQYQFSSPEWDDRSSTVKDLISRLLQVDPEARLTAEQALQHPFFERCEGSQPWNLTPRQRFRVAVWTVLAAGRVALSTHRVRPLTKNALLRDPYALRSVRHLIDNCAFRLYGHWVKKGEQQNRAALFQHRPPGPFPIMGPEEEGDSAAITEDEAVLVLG

The target of experiment [3] is PKCδ (h) (human (h), UniProt Q05655 1-676).
PKCδ (h), sequence (Q05655 whole entry, stated change not applied): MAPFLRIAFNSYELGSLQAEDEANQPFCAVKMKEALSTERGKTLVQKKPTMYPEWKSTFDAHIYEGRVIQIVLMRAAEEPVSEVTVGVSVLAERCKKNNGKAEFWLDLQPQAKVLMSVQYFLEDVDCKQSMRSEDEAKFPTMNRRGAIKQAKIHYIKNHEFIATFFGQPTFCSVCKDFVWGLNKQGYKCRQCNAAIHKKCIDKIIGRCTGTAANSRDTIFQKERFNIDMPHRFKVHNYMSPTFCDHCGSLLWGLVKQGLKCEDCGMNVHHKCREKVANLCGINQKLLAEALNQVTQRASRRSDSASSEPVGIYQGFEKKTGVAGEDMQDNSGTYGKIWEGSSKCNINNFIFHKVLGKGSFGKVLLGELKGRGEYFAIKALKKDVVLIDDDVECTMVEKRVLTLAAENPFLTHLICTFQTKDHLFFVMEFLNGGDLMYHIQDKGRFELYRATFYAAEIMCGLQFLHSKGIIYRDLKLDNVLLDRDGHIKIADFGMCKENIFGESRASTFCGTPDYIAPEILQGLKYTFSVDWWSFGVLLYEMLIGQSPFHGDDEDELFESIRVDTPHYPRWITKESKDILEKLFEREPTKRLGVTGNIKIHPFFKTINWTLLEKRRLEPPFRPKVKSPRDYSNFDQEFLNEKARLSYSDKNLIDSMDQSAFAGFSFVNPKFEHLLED
Experiment [4] concerns the target Lck (h) (human (h), UniProt P06239 1-509).
Experiment [5] addresses Syk (h) (human (h), UniProt P43405 1-635).
The target of experiment [6] is T2, Ret (h) (human (h), UniProt P07949 658-1114, limits assumed).
T2 sequence (looked up): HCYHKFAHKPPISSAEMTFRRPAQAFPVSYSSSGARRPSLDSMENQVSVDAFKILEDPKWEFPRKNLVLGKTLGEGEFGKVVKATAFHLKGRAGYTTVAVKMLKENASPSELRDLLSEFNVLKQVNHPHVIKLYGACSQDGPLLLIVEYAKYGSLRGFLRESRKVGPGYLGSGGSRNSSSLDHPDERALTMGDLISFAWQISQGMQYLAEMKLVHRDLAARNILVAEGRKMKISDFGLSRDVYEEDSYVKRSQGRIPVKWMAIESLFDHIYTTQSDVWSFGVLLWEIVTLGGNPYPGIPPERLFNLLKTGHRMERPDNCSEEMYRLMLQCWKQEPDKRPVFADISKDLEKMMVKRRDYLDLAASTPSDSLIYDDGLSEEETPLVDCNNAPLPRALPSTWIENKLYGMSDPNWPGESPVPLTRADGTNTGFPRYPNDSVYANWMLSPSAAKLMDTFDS

Experiment [7] addresses PKA (h) (human (h), UniProt P17612 1-351).

Lck (h), sequence (P06239 whole entry): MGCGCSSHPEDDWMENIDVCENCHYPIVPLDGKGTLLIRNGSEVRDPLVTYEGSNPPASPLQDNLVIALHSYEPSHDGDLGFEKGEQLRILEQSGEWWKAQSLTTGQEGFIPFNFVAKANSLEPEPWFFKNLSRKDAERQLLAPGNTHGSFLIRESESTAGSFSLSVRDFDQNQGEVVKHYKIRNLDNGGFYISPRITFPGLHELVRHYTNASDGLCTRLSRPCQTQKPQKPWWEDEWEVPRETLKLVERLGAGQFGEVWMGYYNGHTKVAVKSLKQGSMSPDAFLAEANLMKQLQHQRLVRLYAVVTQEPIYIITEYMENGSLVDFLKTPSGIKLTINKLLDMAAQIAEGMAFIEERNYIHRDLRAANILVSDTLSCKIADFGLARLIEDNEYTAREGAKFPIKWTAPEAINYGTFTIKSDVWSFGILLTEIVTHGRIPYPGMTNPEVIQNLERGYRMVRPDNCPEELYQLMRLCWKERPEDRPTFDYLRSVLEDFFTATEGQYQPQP
JAK3 (h), sequence (P52333 781-1124 limits assumed): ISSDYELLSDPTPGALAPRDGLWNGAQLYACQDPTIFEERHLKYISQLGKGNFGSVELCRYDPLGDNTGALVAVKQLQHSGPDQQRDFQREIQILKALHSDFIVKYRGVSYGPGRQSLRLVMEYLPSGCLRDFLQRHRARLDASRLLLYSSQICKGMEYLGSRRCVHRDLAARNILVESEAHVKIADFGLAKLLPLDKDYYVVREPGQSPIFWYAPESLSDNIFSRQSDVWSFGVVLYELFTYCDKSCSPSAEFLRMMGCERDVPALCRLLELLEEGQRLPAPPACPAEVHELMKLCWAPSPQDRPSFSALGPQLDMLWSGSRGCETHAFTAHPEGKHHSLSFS

B1: KAFAKLAARLYRKALARQLGVAA (peptide)
peptide: KAFAKLAARLYRKALARQLGVAA
For B1, the “Profile-1 @ = 100 µm (kinase profiler assay)” value was 91 in experiment [1]; 27 in experiment [2]; 24 in experiment [3]; 847 in experiment [4]; 4 in experiment [5]; 117 in experiment [6]. Moreover, the “Profile-1 @ = 100 µm (kinase profiler assay)” value in experiment [7] turned out to be 103.
